Laboratory results reported in patent US20250346679A1 (INVOX PHARMA, published 2025).

T1: cynomolgus CD137, cell-surface (cynomolgus, UniProt Q07011 24-255 (human entry))
T1 chain: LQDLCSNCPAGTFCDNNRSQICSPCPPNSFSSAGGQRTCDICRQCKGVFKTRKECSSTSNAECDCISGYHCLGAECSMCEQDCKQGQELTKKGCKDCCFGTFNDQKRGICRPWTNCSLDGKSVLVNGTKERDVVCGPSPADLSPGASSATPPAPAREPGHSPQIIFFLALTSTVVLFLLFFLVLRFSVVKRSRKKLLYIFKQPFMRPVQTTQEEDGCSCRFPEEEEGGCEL

T2: cCD137-mFc-Avi (cynomolgus; mouse)
T2 construct: also called cynomolgus CD137-mFc-Avi; Cyno CD137-mFc-Avi; not shown: mouse IgG2a Fc domain (mIgG2a Fc)
T2 chain: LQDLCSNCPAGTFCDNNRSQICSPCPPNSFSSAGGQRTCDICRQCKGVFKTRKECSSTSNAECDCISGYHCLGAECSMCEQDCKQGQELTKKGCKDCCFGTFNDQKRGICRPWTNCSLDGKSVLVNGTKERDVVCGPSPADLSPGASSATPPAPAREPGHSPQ

T3: mouse FcRn (R&D systems, 9114-Fc) (mouse, UniProt Q61559 22-297; P01887 21-119, limits assumed)
T3 sequence (looked up) 1: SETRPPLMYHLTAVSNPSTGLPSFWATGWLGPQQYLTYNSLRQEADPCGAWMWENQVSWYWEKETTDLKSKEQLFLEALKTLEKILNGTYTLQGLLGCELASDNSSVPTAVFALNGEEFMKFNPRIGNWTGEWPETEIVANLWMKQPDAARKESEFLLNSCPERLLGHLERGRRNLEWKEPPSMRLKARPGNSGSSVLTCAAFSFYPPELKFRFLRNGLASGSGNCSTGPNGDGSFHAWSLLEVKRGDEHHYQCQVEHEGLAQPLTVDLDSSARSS
T3 sequence (looked up) 2: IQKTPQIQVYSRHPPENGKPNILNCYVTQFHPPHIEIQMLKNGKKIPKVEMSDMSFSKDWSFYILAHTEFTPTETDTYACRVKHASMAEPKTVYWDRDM

B1: FS22-053-008-AA/E12v2 (bispecific antibody, human IgG1, kappa, L234A L235A)
heavy: EVQLVQSGAEVKRPGASVKVSCKASGYPFTSYGISWVRQAPGQGLEWMGWISAYSGGTNYAQKLQGRVTMTTDTSTSTAYMELRSLRSDDTAVYYCARDLFPTIFGVSYYYYWGQGTLVTVSSASTKGPSVFPLAPSSKSTSGGTAALGCLVKDYFPEPVTVSWNSGALTSGVHTFPAVLQSSGLYSLSSVVTVPSSSLGTQTYICNVNHKPSNTKVDKKVEPKSCDKTHTCPPCPAPEAAGGPSVFLFPPKPKDTLMISRTPEVTCVVVDVSHEDPEVKFNWYVDGVEVHNAKTKPREEQYNSTYRVVSVLTVLHQDWLNGKEYKCKVSNKALPAPIEKTISKAKGQPREPQVYTLPPSRDELNPPYLFSNQVSLTCLVKGFYPSDIAVEWESNGQPENNYKTTPPVLDSDGSFFLYSKLTVDYWRWLEGNVFSCSVMHEALHNHYTQKSLSLSPG
light: DIQMTQSPSTLSASVRDRVIITCRASQSIGNRLAWYQHKPGKAPKLLIYEASTSETGVPSRFSGSGSGTDFTLTISSLQPEDFATYYCQQSYSTPYTFGQGTKLEIKRTVAAPSVFIFPPSDEQLKSGTASVVCLLNNFYPREAKVQWKVDNALQSGNSQESVTEQDSKDSTYSLSSTLTLSKADYEKHKVYACEVTHQGLSSPVTKSFNRGEC
B2: G1-AA/20H4.9 (antibody, V domains shown)
VH: QVQLQQWGAGLLKPSETLSLTCAVYGGSFSGYYWSWIRQSPEKGLEWIGEINHGGYVTYNPSLESRVTISVDTSKNQFSLKLSSVTAADTAVYYCARDYGPGNYDWYFDLWGRGTLVTVSS
VL: EIVLTQSPATLSLSPGERATLSCRASQSVSSYLAWYQQKPGQAPRLLIYDASNRATGIPARFSGSGSGTDFTLTISSLEPEDFAVYYCQQRSNWPPALTFGGGTKVEIKR
B3: FS22-172-003-AA/lam-G02v3 (bispecific antibody, human IgG1, L234A L235A)
heavy: EVQLVQSGAEVKRPGASVKVSCKASGYTFTSYGISWVRQAPGQGLEWMGWISAYSGGTNYAQKLQGRVTMTTDTSTSTAYMELRSLRSDDTAVYYCARDLFPTIFGVSYYYYWGQGTLVTVSSASTKGPSVFPLAPSSKSTSGGTAALGCLVKDYFPEPVTVSWNSGALTSGVHTFPAVLQSSGLYSLSSVVTVPSSSLGTQTYICNVNHKPSNTKVDKKVEPKSCDKTHTCPPCPAPEAAGGPSVFLFPPKPKDTLMISRTPEVTCVVVDVSHEDPEVKFNWYVDGVEVHNAKTKPREEQYNSTYRVVSVLTVLHQDWLNGKEYKCKVSNKALPAPIEKTISKAKGQPREPQVYTLPPSRDELPYIIPPYNQVSLTCLVKGFYPSDIAVEWESNGQPENNYKTTPPVLDSDGSFFLYSKLTVGADRWLEGNVFSCSVMHEALHNHYTQKSLSLSPG
light: QSALTQPASVSGSPGQSITISCTGTSSDVGGYNYVSWYQQFPGKAPKLMIFEVTNRPSGVSDRFSGSKSDNTASLTISGLQAEDEAEYYCSSFKRGSTLVVFGGGTKLTVLGQPAAAPSVTLFPPSSEELQANKATLVCLISDFYPGAVTVAWKADSSPVKAGVETTTPSKQSNNKYAASSYLSLTPEQWKSHRSYSCQVTHEGSTVEKTVAPTECS
notes: see recheck
B4: G1/929_01_A08 (antibody, IgG1, V domains shown)
VH: EVQLVQSGAEVKRPGASVKVSCKASGYTFTSYGISWVRQAPGQGLEWMGWISAYSGGTNYAQKLQGRVTMTTDTSTSTAYMELRSLRSDDTAVYYCARDLFPTIFGVSYYYYWGQGTLVTVSS
VL: DIQMTQSPSTLSASVGDRVTITCRASQSISGRLAWYQQKPGKAPNLLIYEASNLESGVPSRFSGSGSGTEFTLTISSLQPEDFATYYCQQSYSTPRVTFGQGTKVEIK
notes: IgG1 without LALA; SGGT variant of G1/894_08_E05, became G1-AA/E05v2 with LALA

How the values were obtained:
[1] = molecular target: T1, cynomolgus CD137, cell-surface; assay: cell-based or functional assay
[2] = molecular target: human PD-L1, cell-surface (human, UniProt Q9NZQ7 19-290); assay: cell-based or functional assay
Chain of human PD-L1, cell-surface (Q9NZQ7 19-290): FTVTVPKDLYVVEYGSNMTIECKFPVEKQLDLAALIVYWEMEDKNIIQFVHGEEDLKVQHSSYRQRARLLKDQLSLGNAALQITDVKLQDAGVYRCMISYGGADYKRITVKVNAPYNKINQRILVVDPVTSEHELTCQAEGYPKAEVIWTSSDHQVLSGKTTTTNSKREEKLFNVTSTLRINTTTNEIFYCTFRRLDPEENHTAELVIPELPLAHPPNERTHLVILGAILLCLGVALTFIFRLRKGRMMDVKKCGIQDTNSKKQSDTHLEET

[3] = molecular target: T4, hCD137-mFc-Avi (human; mouse, UniProt Q07011 24-186, biotin on the Avi sequence where the biotinylated form was used); assay: SPR, mAb^2 captured by anti-human Fab, antigen in flow
T4 construct: also called human CD137-mFc-Avi; dimeric human CD137; not shown: mouse IgG2a Fc domain (mIgG2a Fc)
T4 sequence (Q07011 24-186): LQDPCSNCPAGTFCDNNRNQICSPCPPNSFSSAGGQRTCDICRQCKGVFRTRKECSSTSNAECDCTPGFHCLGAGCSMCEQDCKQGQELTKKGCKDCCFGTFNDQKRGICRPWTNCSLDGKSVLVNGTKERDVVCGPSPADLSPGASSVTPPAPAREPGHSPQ
Experimental: (§1) The binding of the anti-human CD137/PD-L1 mAb² to recombinant dimeric human and cynomolgus CD137 antigens was also measured by SPR using a Biacore T200 processing unit (GE Healthcare).
(§2) Briefly, 20 μg/ml anti-human Fab antibody (GE Healthcare, Human Fab Capture kit 28958325) was coated on flow cells 1, 2, 3 and 4 of a Biacore sensor S chip CM5 (GE Healthcare, BR100530) achieving a final response of approximately 5000 RU. […] The recombinant dimeric antigens, human CD137-mFc-Avi or cynomolgus CD137-mFc-Avi (see Example 1.1 for antigen details) diluted in HBS-EP buffer, were injected on flow cell 1, 2, 3 or 4 as appropriate at a concentration range of 81 nM to 0.037 nM with 3-fold dilutions for 4 minutes at 70 μl/min and then allowed to dissociate in buffer for 10 minutes. Regeneration was achieved by injecting 10 mM glycine pH 2.1 (GE Healthcare, Human Fab Capture kit 28958325) for 60 seconds at a rate of 30 μl/min. Data analysis was performed as described in Example 9.1.

[4] = molecular target: T2, cCD137-mFc-Avi; assay: as above
Experimental: as §1, §2

[5] = molecular target: T5, biotinylated hPD-L1-Avi-His (Acro Biosystems, PD1-H82E5) (human, UniProt Q9NZQ7 19-238, biotinylated); assay: SPR, mAb^2 captured on Protein A chip, antigen in flow
T5 construct: bought; also called Human PD-L1-His; not shown: Avi and His tags of the bought product
T5 sequence (Q9NZQ7 19-238): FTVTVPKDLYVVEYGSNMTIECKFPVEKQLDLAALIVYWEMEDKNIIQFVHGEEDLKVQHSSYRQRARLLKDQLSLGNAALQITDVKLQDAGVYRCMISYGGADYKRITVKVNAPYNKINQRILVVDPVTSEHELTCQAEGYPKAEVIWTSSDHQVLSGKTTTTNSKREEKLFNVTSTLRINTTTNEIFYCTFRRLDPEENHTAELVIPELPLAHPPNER
Experimental: (§3) Briefly, the anti-human CD137/PD-L1 mAb², diluted in HBS-EP buffer (GE Healthcare, BR100188) at 2 μg/ml, were injected individually on flows cell 2, 3 and 4 of a Protein A chip (GE Healthcare, 29127556) at 30 μl/min to achieve a final response of approximately 110 RU. Two different recombinant human PD-L1 antigens were used i.e. hPD-L1-His-Avi (see Example 1.3 for antigen details) and biotinylated hPD-L1-Avi-His (Acrobiosystems, PD-1-H82E5). Human and cynomolgus PD-L1-His (Acrobiosystems, PD-1-C52H4) antigens, diluted in HBS-EP buffer, were injected on flow cell 1, 2, 3 or 4 as appropriate at a concentration range of 81 nM to 0.037 nM with 3-fold dilutions for 4 min at 75 μl/min and then allowed to dissociate in buffer for 10 min. Regeneration was achieved by injecting 10 mM glycine-HCL pH1.5 (GE Healthcare, Human Antibody Capture Kit, BR00356) for 30 sec at a rate of 30 μl/min. Subtracted data (flow cell 2−flow cell 1, flow cell 3−flow cell 1, or flow cell 4−flow cell 1) were analysed using BIAevaluation 3.2 Software (GE Healthcare) to identify binding using the model 1:1 binding with mass transfer, with refractive index (RI) constant 0.

[6] = molecular target: T6, cPD-L1-His (Acro Biosystems, PD1-C52H4) (cynomolgus, UniProt Q9NZQ7 19-238 (human entry)); assay: as above
T6 construct: bought; also called Cyno PD-L1-His; Cynomolgus PD-L1-His; not shown: His tag of the bought product
T6 sequence (Q9NZQ7 other isoform, or with tags, fused parts or gaps): as the sequence (Q9NZQ7 19-238) above, with A33T, A34S, S62N, R68Q, Q82R, F173L, T185A, T192I, H215L counted along it
Experimental: as §3

[7] = molecular target: T7, human CD137, cell-surface (human, UniProt Q07011 24-255); assay: cell-based or functional assay
[8] = molecular target: T3, mouse FcRn (R&D systems, 9114-Fc); assay: SPR, mAb^2 immobilised, FcRn in flow, pH 6.0, steady state affinity; pH 6.0
Source text: (§4) The neonatal Fc receptor (FcRn) binding is critical for antibody recycling (Martins et al., 2016). […] G1-AA/HeID1.3 was included as an isotype control IgG control lacking mutations in the CH3 domain.
(§5) Briefly, mAb² were individually coated on flow cell 2, 3 and 4 of Series S Sensor Chip CM5 (GE Healthcare, BR100530) to achieve a response of approximately 1000 RU. Flow cell 1 was activated/deactivated but left blank as a reference. Human FcRn (Acro Biosystems, FCM-H5286) or mouse FcRn (R&D systems, 9114-Fc) was dialysed and diluted in MHBS-EP⁺B pH 6.0 or pH 7.4 buffer (10 mM MES, FortéBio, 18-5026; 1×HBS-EP, GE Healthcare, BR100669; 0.1 mg/ml BSA, Sigma, A7906) and injected on flow cell 1, 2, 3 and 4 at 2000-3000 nM with 2-fold dilutions for 1 min at 80 μl/min and then allowed to dissociate in buffer for 3 min. […] Subtracted data (flow cell 2−flow cell 1, flow cell 3−flow cell 1, or flow cell 4−flow cell 1) was analysed using Biacore T200 Evaluation Software 2.0 to identify binding using the model steady state affinity.

[9] = molecular target: Human FcRn (Acro Biosystems, FCM-H5286) (human, UniProt P55899 24-297; P61769 21-119); assay: as above
Chain of Human FcRn (Acro Biosystems, FCM-H5286) (P55899 24-297 limits assumed, chain 1 of 2): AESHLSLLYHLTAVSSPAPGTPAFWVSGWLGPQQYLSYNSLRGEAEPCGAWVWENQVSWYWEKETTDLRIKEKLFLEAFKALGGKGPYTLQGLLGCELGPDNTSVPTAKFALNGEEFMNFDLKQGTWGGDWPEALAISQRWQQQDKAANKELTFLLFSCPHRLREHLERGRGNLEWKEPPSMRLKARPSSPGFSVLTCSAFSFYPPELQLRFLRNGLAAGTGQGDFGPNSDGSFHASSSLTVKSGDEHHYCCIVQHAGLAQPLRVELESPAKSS
Chain of Human FcRn (Acro Biosystems, FCM-H5286) (P61769 21-119 limits assumed, chain 2 of 2): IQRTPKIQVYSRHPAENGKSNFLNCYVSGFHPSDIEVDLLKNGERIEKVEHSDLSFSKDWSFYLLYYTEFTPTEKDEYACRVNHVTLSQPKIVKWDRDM
Source text: as §4, §5

[10] = molecular target: T7, human CD137, cell-surface; assay: cell-based or functional assay; remark: listed apart in the source
[11] = molecular target: T7, human CD137, cell-surface; assay: cell-based or functional assay; remark: listed apart in the source
[12] = molecular target: T7, human CD137, cell-surface; assay: cell-based or functional assay; remark: listed apart in the source
[13] = molecular target: T7, human CD137, cell-surface; assay: cell-based or functional assay; remark: listed apart in the source
[14] = molecular target: T8, hPD-L1-rCD4-His (human); assay: SPR, culture supernatants
T8 construct: also called human PD-L1-rCD4-His; hu-PD-L1-rCD4-His
T8 sequence (chain, as listed by the source): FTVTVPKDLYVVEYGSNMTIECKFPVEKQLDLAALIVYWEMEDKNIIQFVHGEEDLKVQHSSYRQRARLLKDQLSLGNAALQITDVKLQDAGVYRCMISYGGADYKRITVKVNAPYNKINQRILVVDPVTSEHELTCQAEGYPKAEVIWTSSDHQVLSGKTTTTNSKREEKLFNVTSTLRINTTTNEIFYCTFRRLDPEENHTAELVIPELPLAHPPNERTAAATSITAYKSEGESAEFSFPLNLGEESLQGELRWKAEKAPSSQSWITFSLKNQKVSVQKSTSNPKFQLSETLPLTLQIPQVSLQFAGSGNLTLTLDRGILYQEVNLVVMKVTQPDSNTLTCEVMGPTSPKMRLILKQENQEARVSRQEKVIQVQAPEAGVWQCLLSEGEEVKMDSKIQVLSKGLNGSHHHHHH

Binder | EC50 (nM) (crosslinked), mIL-2 release, DO11.10.cCD137 with HEK.cyPD-L1 [1] | Emax (pg/ml) (crosslinked), mIL-2 release, DO11.10.cCD137 with HEK.cyPD-L1 [1] [pg/mL] | Kd [3] [nM] | Kd [4] [nM] | Kd [5] [nM] | Kd [6] [nM] | Kd [8] [nM] | Kd [9] [nM] | further results
B1 | 0.08 | 9010 | 2.6 | 0.6 | 0.19 | 0.25 | 177 | 998 | EC50 (nM), IFN-γ release, human MLR [2]: 0.04 nM; Emax (pg/ml), IFN-γ release, human MLR [2]: 3130 pg/mL; EC50 (nM), hIL-2 release, CD8+ T cells, donor 171115A, HEK.hPD-L1 XL [7]: 0.1 nM; EC50 (nM), hIL-2 release, CD8+ T cells, donor 171115A, MDA-MB-231 XL [7]: 0.01 nM; EC50 (nM), hIL-2 release, CD8+ T cells, donor 171115B, HEK.hPD-L1 XL [7]: 0.11 nM; EC50 (nM), hIL-2 release, CD8+ T cells, donor 171115B, MDA-MB-231 XL [7]: 0.02 nM
B2 |  |  |  |  |  |  |  |  | EC50 (nM), IFN-γ release, CEF antigen recall assay, crosslinked with anti-human CH2 [10]: 0.33 nM; EC50, hIL-2 release, primary human CD8+ T cells, crosslinked with anti-hCH2 [11]: 0.5 nM; EC50 (nM), hIL-2 release, CD8+ T cells, donor 171115A, HEK.hPD-L1 assay, crosslinked with anti-hCH2 [7]: 0.21 nM; EC50 (nM), hIL-2 release, CD8+ T cells, donor 171115A, MDA-MB-231 assay, crosslinked with anti-hCH2 [7]: 0.31 nM; EC50 (nM), hIL-2 release, CD8+ T cells, donor 171115B, HEK.hPD-L1 assay, crosslinked with anti-hCH2 [7]: 0.29 nM; EC50 (nM), hIL-2 release, CD8+ T cells, donor 171115B, MDA-MB-231 assay, crosslinked with anti-hCH2 [7]: 0.28 nM; Emax (pg/ml), IFN-γ release, CEFT antigen recall assay, crosslinked with anti-human CH2 (EC50 N/A) [12]: 13000 pg/mL; EC50 (nM), IFN-γ release, human MLR, crosslinked with anti-human CH2 [13]: 1.9 nM
B3 | 0.08 | 12300 | 1.3 | 2.2 | 1.54 | 1.91 | 167 | 1220 | 
B4 |  |  |  |  |  |  |  |  | binding result [14]: binds
